From patent publication US20180335433A1, “COMPOSITIONS TARGETING PKC-THETA AND USES AND METHODS OF TREATING PKC-THETA PATHOLOGIES, ADVERSE IMMUNE RESPONSES AND DISEASES” (La Jolla Institute for Allergy and Immunology, priority 2011, published 2018)

Tested on: B6 CD4+ T cells, Th17 differentiation
Test: In vitro Th17 differentiation of retrovirally transduced CD4+ T cells
Assay type: cell-based, mouse
Details: ectopic expression, Th17 differentiation conditions
Experimental: (FIG. 6A) OT-II CD4^+ T cells were infected with retrovirus expressing Myc-tagged V3 domain, V3 mutated at P330/1/4/6A (V3-4PA), or PR motif-deleted V3 (V3-ΔPR). Infected cells (green) were harvested, stimulated, and fixed. Conjugates were stained with anti-Myc plus a secondary Alexa 555-coupled antibody (orange), and anti-PKCθ plus a secondary Alexa 647-coupled antibody (red). Cells were analyzed as in FIG. 1A. (FIG. 6B) Quantitative analysis of the results shown in (FIG. 6A) from 30-50 T-APC conjugates. ** p<0.05. (FIG. 6C) MCC-specific T hybridoma cells were cotransfected with indicated vector, together with RE/AP-Luc and β-Gal reporter plasmids. Cells were stimulated and analyzed as in FIG. 1C. […] Cytokine-producing cells were analyzed by intracellular staining 8 h after restimulation. […] Normalized luciferase activity was determined in triplicates. […]
Investigators have reported that the Th2 and Th17 immune responses are compromised in PKCθ^−/− mice, whereas the Th1 response remains relatively intact (Marsland, B. J. et al. J Exp Med 200, 181-189 (2004); Salek-Ardakani, S. et al. J Immunol 173, 6440-6447 (2004); Salek-Ardakani, S., et al. J Immunol 175, 7635-7641 (2005)). Therefore, ectopic expression of V3 was analyzed for inhibition of Th differentiation. […]

B1: V3 domain: amino acid 282-379 of human PKCθ with N-terminal Myc tag, expressed from pMIG retroviral vector (protein)
chain: GINQKLMAEALAMIESTQQARCLRDTEQIFREGPVEIGLPCSIKNEARPPCLPTPGKREPQGISWESPLDEVDKMCHLPEPELNKERPSLQIKLKIED
modifications: left off: small tags and cut ends
notes: amino acid 282-379 of human PKCθ with N-terminal Myc tag, expressed from pMIG retroviral vector
  inhibition of Th17 differentiation: ~75%
